From doi:10.1101/2021.02.22.432209 (bioRxiv, 2021) come the findings set out here.

Where two headings read alike, the source gives them in different places.

B1: GABARAP (1-117), His8-TEV-GABARAP (natural protein)
chain: MKFVYKEEHPFEKRRSEGEKIRKKYPDRVPVIVEKAPKARIGDLDKKKYLVPSDLTVGQFYFLIRKRIHLRAEDALFFFVNNVIPPTSATMGQLYQEHHEEDFFLYIAYSDESVYGL
B2: GST-PreScission-p62 FIR 4P (domain or fragment)
chain: MESDNCSGGDDDWTHLSSKEVDPETGELQSLQMPESEGPEELDPEQEGPTGLKEA

What all share (assay): SPR
(SPR reads the build-up and loss of mass on a sensor chip optically.)

The target in experiment [1] is B1.
Experiment [2] has as its target T1, Biotinylated FLCN-8xGlycine-AviTag/FNIP2 (human, UniProt Q8NFG4;Q9P278, biotin on the AviTag).
For experiment [3], the target named is T1, Biotinylated FLCN-8xGlycine-AviTag/FNIP2. The source holds these as a separate data set.
In experiment [4] the target is LC3B (1-125), His8-TEV-LC3B (human, UniProt Q9GZQ8 1-120).
For experiment [5], the target named is B1. This is another data set of the same source.

Take GSKIITALEKGEVEESEYVVITVRNEP [FNIP2 peptide 550-576, wild type (Long)]: the affinity in experiment [1], expressed as Kd, was 29 ± 2 nM.
On the same count and under the same terms, next, EKGEVEESEYVVITVRNEP [FNIP2 peptide 558-576, wild type (Short)]: 6200 ± 3000 nM.
As for B1, the Kd (in general, the constant that tells how readily two partners part at equilibrium) in experiment [2] was determined as 0.071 ± 0.01 nM; in experiment [3], 0.3 ± 0.018 nM.
On to B2, for which the results for the Kd in experiment [4] and in experiment [5] were 820 ± 40 nM and 670 ± 80 nM, respectively.
